In patent US6083711, “Proteases compositions capable of binding to said site, and methods of use thereof” (SmithKline Beecham Corporation, dated 2000):

Molecular target: the molecule itself
Assay: crystal structure, homodimer

Row | Protein | binding result
1 | unliganded HSV-2 protease (enzyme) MASAEMRERLEAPLPDRAVPIYVAGFLALYDSGDPGELALDPDTVRAALPPENPLPINVNHRARCEVGRVLAVVNDPRGPFFVGLIACVQLERVLETAASAAIFERRGPALSREERLLYLITNYLPSVSLSTKRRGDEVPPDRTLFAHVALCAIGRRLGTIVTYDTSLDAAIAPFRHLDPATREGVRREAAEAELALAGRTWAPGVEALTHTLLSTAVNNMMLRDRWSLVAERRRQAGIAGHTYLQA | binds
2 | protease from delta9 LQAS-12aa ext H6(C) VZV (enzyme) MEALYVAGLYALYSKDEGELNITPEIVRSALPPTSKIPINIDHRKDCVVGEVIAIIEDIRGPFFLGIVRCPQLHAVLFEAAHSNFFGNRDSVLSPLERALYLVTNYLPSVSLSSKRLSPNEIPDGNFFTHVALCVVGRRVGTVVNYDCTPESSIEPFRVLSMESKARLLSLVKDYAGLNKVWKVSEDKLAKVLLSTAVNNMLLRDRWDVVAKRRREAGIMGHVYLQA | binds
3 | CMV A143V protease (enzyme) MTMDEQQSQAVAPVYVGGFLARYDQSPDEAELLLPRDVVEHWLHAQGQGQPSLSVALPLNINHDDTAVVGHVAAMQSVRDGLFCLGCVTSPRFLEIVRRASEKSELVSRGPVSPLQPDKVVEFLSGSYAGLSLSSRRCDDVEVATSLSGSETTPFKHVALCSVGRRRGTLAVYGRDPEWVTQRFPDLTAADRDGLRAQWQRCGSTAVDASGDPFRSDSYGLLGNSVDALYIRERLPKLRYDKQLVGVTERESYVKA | binds
4 | HSV-1 protease (enzyme) MAADAPGDRMEEPLPDRAVPIYVAGFLALYDSGDSGELALDPDTVRAALPPDNPLPINVNHRAGCEVGRVLAVVDDPRGPFFVGLIACVQLERVLETAASAAIFERRGPPLSREERLLYLITNYLPSVSLATKRLGGEAHPDRTLFAHVALCAIGRRLGTIVTYDTGLDAAIAPFRHLSPASREGARRLAAEAELALSGRTWAPGVEALTHTLLSTAVNNMMLRDRWSLVAERRRQAGIAGHTYLQA | binds
